How the values were obtained:
[1] = target: T1, (His)6-NLRP1 (NLR family, pyrin domain-containing 1), purified recombinant full-length protein from Sf21 cells (human) (UniProt Q9C000); experiment: cell-based or functional assay
T1 sequence: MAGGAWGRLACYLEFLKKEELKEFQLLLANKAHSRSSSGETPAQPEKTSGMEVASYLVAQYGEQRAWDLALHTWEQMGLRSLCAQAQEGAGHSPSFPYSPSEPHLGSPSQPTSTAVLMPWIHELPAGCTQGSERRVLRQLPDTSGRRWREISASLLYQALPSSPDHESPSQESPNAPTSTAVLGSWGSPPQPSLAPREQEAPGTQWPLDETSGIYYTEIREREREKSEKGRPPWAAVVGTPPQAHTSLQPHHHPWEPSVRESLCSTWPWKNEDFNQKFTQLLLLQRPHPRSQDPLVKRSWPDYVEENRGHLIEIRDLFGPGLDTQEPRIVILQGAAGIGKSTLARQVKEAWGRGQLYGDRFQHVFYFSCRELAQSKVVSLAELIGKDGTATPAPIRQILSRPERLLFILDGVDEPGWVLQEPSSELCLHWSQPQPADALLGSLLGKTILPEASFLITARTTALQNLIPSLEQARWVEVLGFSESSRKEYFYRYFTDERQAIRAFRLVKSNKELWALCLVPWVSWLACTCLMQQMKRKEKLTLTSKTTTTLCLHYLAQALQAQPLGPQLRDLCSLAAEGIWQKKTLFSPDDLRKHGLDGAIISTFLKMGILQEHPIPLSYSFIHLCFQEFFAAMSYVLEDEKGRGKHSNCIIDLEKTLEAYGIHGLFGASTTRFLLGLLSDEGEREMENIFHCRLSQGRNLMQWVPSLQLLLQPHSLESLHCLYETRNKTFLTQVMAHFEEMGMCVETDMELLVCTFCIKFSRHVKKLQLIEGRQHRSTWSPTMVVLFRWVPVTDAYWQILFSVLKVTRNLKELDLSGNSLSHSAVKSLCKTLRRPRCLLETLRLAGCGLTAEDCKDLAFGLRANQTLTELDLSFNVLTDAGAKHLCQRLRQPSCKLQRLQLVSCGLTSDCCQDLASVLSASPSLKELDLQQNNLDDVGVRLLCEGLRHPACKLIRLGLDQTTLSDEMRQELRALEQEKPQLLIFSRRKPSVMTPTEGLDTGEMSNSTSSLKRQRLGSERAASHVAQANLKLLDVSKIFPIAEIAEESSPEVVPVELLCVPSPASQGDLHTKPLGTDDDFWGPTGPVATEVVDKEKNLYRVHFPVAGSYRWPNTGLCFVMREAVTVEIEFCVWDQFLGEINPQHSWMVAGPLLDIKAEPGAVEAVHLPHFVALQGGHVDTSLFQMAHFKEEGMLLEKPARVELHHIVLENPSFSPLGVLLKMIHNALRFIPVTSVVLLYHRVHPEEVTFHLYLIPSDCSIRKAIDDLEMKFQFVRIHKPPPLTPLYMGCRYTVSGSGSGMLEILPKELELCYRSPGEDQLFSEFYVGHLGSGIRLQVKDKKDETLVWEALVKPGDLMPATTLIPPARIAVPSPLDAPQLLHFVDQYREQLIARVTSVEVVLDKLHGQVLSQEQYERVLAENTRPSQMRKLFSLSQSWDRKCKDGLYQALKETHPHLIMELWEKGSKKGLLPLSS

[2] = target: T1, (His)6-NLRP1 (NLR family, pyrin domain-containing 1), purified recombinant full-length protein from Sf21 cells (human); experiment: enzyme kinetics of the reconstituted NLRP1 inflammasome (Caspase-1 activity on Ac-WEHD-AMC); Ki from the competitive inhibition equation

Substance	IC50 (concentration to inhibit NLRP1-induced Caspase-1 activity by 50%) [1] [nM]	FITC-ATP binding to NLRP1 (FPA), reduction [1] [%]	Ki [2] [nM]
Bcl-2 Loop peptide 35-83 (synthetic)	11.4	–	–
GST-Bcl-2 (Bcl-2 lacking its C-terminal transmembrane domain, ~last 20 amino acids) (from UniProt P08515 1-218; P10415 1-218)	–	60	8.23
